Assay results reported in patent US20200247897A1, “THERAPEUTIC ANTIBODIES BASED ON MUTATED IGG HEXAMERS” (GENMAB B.V., priority 2017, published 2020).

Tests used:
LS-411N = assay: Drug combination screen (ATPlite, Synergy Score), LS-411N; type: cell-based, human; conditions: compound in combination with IgG1-hDR5-01-G56T-E430G + IgG1-hDR5-05-E430G; LS-411N; 72 hour ATPlite, 6x6 matrix
SW480 = assay: Drug combination screen (ATPlite, Synergy Score), SW480; type: cell-based, human; conditions: compound in combination with IgG1-hDR5-01-G56T-E430G + IgG1-hDR5-05-E430G; SW480; 72 hour ATPlite, 6x6 matrix
HCT 116 = assay: Drug combination screen (ATPlite, Synergy Score), HCT 116; conditions: compound in combination with IgG1-hDR5-01-G56T-E430G + IgG1-hDR5-05-E430G; HCT 116; 120 hour ATPlite, 6x6 matrix
SNU-C2B = assay: Drug combination screen (ATPlite, Synergy Score), SNU-C2B; conditions: compound in combination with IgG1-hDR5-01-G56T-E430G + IgG1-hDR5-05-E430G; SNU-C2B; 72 hour ATPlite, 6x6 matrix
DLD-1 = assay: Drug combination screen (ATPlite, Synergy Score), DLD-1; conditions: compound in combination with IgG1-hDR5-01-G56T-E430G + IgG1-hDR5-05-E430G; DLD-1; 120 hour ATPlite, 6x6 matrix

B1: TNF-related apoptosis-inducing ligand (protein, UniProt P50591 1-281, looked up)
Tumor necrosis factor ligand …: MAMMEVQGGPSLGQTCVLIVIFTVLLQSLCVAVTYVYFTNELKQMQDKYSKSGIACFLKEDDSYWDPNDEESMNSPCWQVKWQLRQLVRKMILRTSEETISTVQEKQQNISPLVRERGPQRVAAHITGTRGRSNTLSSPNSKNEKALGRKINSWESSRSGHSFLSNLHLRNGELVIHEKGFYYIYSQTYFRFQEEIKENTKNDKQMVQYIYKYTSYPDPILLMKSARNSCWSKDAEYGLYSIYQGGIFELKENDRIFVSVTNEHLIDMDHEASFFGAFLVG
Synergy Score LS-411N (LS-411N): 0.1
Synergy Score SW480 (SW480): 0.9
Synergy Score HCT-116 (HCT 116): 0
Synergy Score SNU-C2B (SNU-C2B): 0.2
Synergy Score DLD-1 (DLD-1): 0
